Measured values from patent publication US20120321619A1 (Bayer, published 2012).

T1: recombinant soluble human C4.4a (human, UniProt O95274 31-308)
T1 construct: recombinant, soluble, purified protein; also called hC4.4a; full length C4.4a
T1 sequence: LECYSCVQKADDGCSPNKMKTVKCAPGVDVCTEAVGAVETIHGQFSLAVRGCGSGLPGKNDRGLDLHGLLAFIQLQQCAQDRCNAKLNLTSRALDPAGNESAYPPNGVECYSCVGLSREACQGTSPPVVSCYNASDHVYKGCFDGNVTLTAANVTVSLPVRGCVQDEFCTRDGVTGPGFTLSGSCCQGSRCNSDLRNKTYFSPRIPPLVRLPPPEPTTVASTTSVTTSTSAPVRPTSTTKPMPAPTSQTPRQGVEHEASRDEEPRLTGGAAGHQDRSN

T2: recombinant soluble murine C4.4a (mouse, UniProt Q91YK8 33-343, limits assumed)
T2 construct: also called mouse C4.4a; mC4.4a
T2 sequence (looked up): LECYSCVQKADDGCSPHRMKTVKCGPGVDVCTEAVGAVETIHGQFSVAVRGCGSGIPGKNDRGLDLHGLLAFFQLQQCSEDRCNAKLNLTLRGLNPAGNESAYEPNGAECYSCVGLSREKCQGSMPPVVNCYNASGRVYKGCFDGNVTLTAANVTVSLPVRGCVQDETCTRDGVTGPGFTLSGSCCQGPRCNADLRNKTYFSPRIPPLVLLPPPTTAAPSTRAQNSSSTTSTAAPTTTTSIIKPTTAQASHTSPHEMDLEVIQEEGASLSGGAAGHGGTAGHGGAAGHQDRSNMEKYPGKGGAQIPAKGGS


Tests used:
[1] = biological target: T1, recombinant soluble human C4.4a; assay: direct ELISA, Fab supernatant on coated human C4.4a, signal normalized to Fab quantity
Method: (§1) Cultures were diluted in 10% Smart Block in PBST and bound to the MTP plates for 1 h at 20° C. After washing with PBST, captured antibodies were incubated with a HRP-coupled anti-lambda antibody (Sigma, A5175) and detected by incubating the plate with 10 μM amplex red substrate (Invitrogen, A12222) for 30 minutes at 20° C. in the dark followed by fluorescence measurement. Determined quantification signals were checked to be in the dynamic range of an calibration series built up with concentrated parental Fab (M31-B01 or M20-D02-S-A) expression culture supernatant allowing a relative quantification of each individual Fab expression sample.
(§2) To determine the activity of the mutated Fab variants on recombinant soluble human or mouse C4.4a a direct ELISA assay format was used. Briefly, MTP plates (Nunc maxisorp black, 460518) were coated with 2 μg/ml either human or mouse C4.4a diluted in coating buffer (Candor Bioscience GmbH, 121125) and incubated for 15 h at 4° C. After washing 3 times with PBST, plates were blocked with 100% Smart Block (Candor Bioscience GmbH, 113500) for 1 h at 20° C. and the washing steps were repeated. For binding of the Fab antibody fragments 20 μl of culturing supernatants were added to the plates for 1 h at 20° C. followed by washing. In some cases the washing stringency was increased by an additional incubation step with 10% Smart Block in PBST for 90 min followed by washing 3 times with PBST (“process B” in Table 10b). Bound parental Fabs and variants were then detected by a HA-epitope tag specific antibody HRP conjugate (Bethyl, A190-108P). 10 μM amplex red substrate (Invitrogen, A12222) was added to the plates and the fluorescence signal was detected using a common fluorescence reader, e.g. Tecan Ultra. Quantity normalized affinity signals were calculated as ratios of background corrected affinity and quantification signals in the respective ELISA: (Signalaffinity−Backgroundaffinity)/(Signalquantity−Backgroundquantity). The resulting values correlate mainly with the affinity in a positive manner, whereas not normalized values correlate additionally with the concentration of the binding Fab in the sample.

[2] = biological target: T2, recombinant soluble murine C4.4a; assay: direct ELISA, Fab supernatant on coated mouse C4.4a, signal normalized to Fab quantity
Method: as §1, §2

Binder	normalized affinity signal (average) [1]	normalized affinity signal (median) [1]	normalized affinity signal (average) [2]	normalized affinity signal (median) [2]
M20-D02 S-A Fab LC N95aW (Fab, V domains shown, Fab with 3×HA-tag and hexa-histidine tag at the C-terminus of the heavy chain, culture supernatant) VH: EVQLLESGGGLVQPGGSLRLSCAASGFTFSDYQMTWIRQTPGKGLEWVSGVSWNGARTHYADSVKGRFTISRDNSKNTLYLQMNSLRAEDTAVYYCAKGDYLVYSAYYFDSWGQGTLVTVTS VL: not shown	0.11			
wild-type Fab M31-B01 (Fab, V domains shown, Fab with 3×HA-tag and hexa-histidine tag at the C-terminus of the heavy chain, E. coli culture supernatant; also called M31-B01 (parental Fab)) VH: EVQLLESGGGLVQPGGSLRLSCAASGFTFSNAWMSWVRQAPGKGLEWVSYISSSGSTIYYADSVKGRFTISRDNSKNTLYLQMNSLRAEDTAVYYCAREGLWAFDYWGQGTLVTVTS VL: QSVLTQPPSASGTPGQRVTISCTGSSSNIGAGYVVHWYQQLPGTAPKLLIYDNNKRPSGVPDRFSGSKSGTSASLAISGLRSEDEADYYCAAWDDRLNGPVFGGGTKLTVLG	1.11	1.23	0.13	0.16
M31-B01 Fab HC N31S (Fab, V domains shown, Fab with 3×HA-tag and hexa-histidine tag at the C-terminus of the heavy chain, culture supernatant) VH: EVQLLESGGGLVQPGGSLRLSCAASGFTFSSAWMSWVRQAPGKGLEWVSYISSSGSTIYYADSVKGRFTISRDNSKNTLYLQMNSLRAEDTAVYYCAREGLWAFDYWGQGTLVTVTS VL: QSVLTQPPSASGTPGQRVTISCTGSSSNIGAGYVVHWYQQLPGTAPKLLIYDNNKRPSGVPDRFSGSKSGTSASLAISGLRSEDEADYYCAAWDDRLNGPVFGGGTKLTVLG		1.53		0.32
M31-B01 Fab HC I57T (Fab, V domains shown, Fab with 3×HA-tag and hexa-histidine tag at the C-terminus of the heavy chain, culture supernatant) VH: EVQLLESGGGLVQPGGSLRLSCAASGFTFSNAWMSWVRQAPGKGLEWVSYISSSGSTTYYADSVKGRFTISRDNSKNTLYLQMNSLRAEDTAVYYCAREGLWAFDYWGQGTLVTVTS VL: QSVLTQPPSASGTPGQRVTISCTGSSSNIGAGYVVHWYQQLPGTAPKLLIYDNNKRPSGVPDRFSGSKSGTSASLAISGLRSEDEADYYCAAWDDRLNGPVFGGGTKLTVLG		1.5		0.73
M31-B01 Fab HC T56S (Fab, V domains shown, Fab with 3×HA-tag and hexa-histidine tag at the C-terminus of the heavy chain, culture supernatant) VH: EVQLLESGGGLVQPGGSLRLSCAASGFTFSNAWMSWVRQAPGKGLEWVSYISSSGSSIYYADSVKGRFTISRDNSKNTLYLQMNSLRAEDTAVYYCAREGLWAFDYWGQGTLVTVTS VL: QSVLTQPPSASGTPGQRVTISCTGSSSNIGAGYVVHWYQQLPGTAPKLLIYDNNKRPSGVPDRFSGSKSGTSASLAISGLRSEDEADYYCAAWDDRLNGPVFGGGTKLTVLG		1.58		0.74
M31-B01 Fab HC Y102W (Fab, V domains shown, Fab with 3×HA-tag and hexa-histidine tag at the C-terminus of the heavy chain, culture supernatant) VH: EVQLLESGGGLVQPGGSLRLSCAASGFTFSNAWMSWVRQAPGKGLEWVSYISSSGSTIYYADSVKGRFTISRDNSKNTLYLQMNSLRAEDTAVYYCAREGLWAFDWWGQGTLVTVTS VL: QSVLTQPPSASGTPGQRVTISCTGSSSNIGAGYVVHWYQQLPGTAPKLLIYDNNKRPSGVPDRFSGSKSGTSASLAISGLRSEDEADYYCAAWDDRLNGPVFGGGTKLTVLG	1.65		0.13	
M31-B01 Fab HC Y102K (Fab, V domains shown, Fab with 3×HA-tag and hexa-histidine tag at the C-terminus of the heavy chain, culture supernatant) VH: EVQLLESGGGLVQPGGSLRLSCAASGFTFSNAWMSWVRQAPGKGLEWVSYISSSGSTIYYADSVKGRFTISRDNSKNTLYLQMNSLRAEDTAVYYCAREGLWAFDKWGQGTLVTVTS VL: QSVLTQPPSASGTPGQRVTISCTGSSSNIGAGYVVHWYQQLPGTAPKLLIYDNNKRPSGVPDRFSGSKSGTSASLAISGLRSEDEADYYCAAWDDRLNGPVFGGGTKLTVLG	1.49		0.21	
M31-B01 Fab HC A32Y (Fab, V domains shown, Fab with 3×HA-tag and hexa-histidine tag at the C-terminus of the heavy chain, culture supernatant) VH: EVQLLESGGGLVQPGGSLRLSCAASGFTFSNYWMSWVRQAPGKGLEWVSYISSSGSTIYYADSVKGRFTISRDNSKNTLYLQMNSLRAEDTAVYYCAREGLWAFDYWGQGTLVTVTS VL: QSVLTQPPSASGTPGQRVTISCTGSSSNIGAGYVVHWYQQLPGTAPKLLIYDNNKRPSGVPDRFSGSKSGTSASLAISGLRSEDEADYYCAAWDDRLNGPVFGGGTKLTVLG		2.31		0.01

The next lines start with the values.

normalized affinity signal (average) [1]	normalized affinity signal (median) [1]	normalized affinity signal (average) [2]	normalized affinity signal (median) [2]	Binder
0.95		0.32		M31-B01 Fab LC P96A (Fab, V domains shown, Fab with 3×HA-tag and hexa-histidine tag at the C-terminus of the heavy chain, culture supernatant) VH: EVQLLESGGGLVQPGGSLRLSCAASGFTFSNAWMSWVRQAPGKGLEWVSYISSSGSTIYYADSVKGRFTISRDNSKNTLYLQMNSLRAEDTAVYYCAREGLWAFDYWGQGTLVTVTS VL: QSVLTQPPSASGTPGQRVTISCTGSSSNIGAGYVVHWYQQLPGTAPKLLIYDNNKRPSGVPDRFSGSKSGTSASLAISGLRSEDEADYYCAAWDDRLNGAVFGGGTKLTVLG
1.11		0.12		M31-B01 Fab LC N95aK (Fab, V domains shown, Fab with 3×HA-tag and hexa-histidine tag at the C-terminus of the heavy chain, culture supernatant) VH: EVQLLESGGGLVQPGGSLRLSCAASGFTFSNAWMSWVRQAPGKGLEWVSYISSSGSTIYYADSVKGRFTISRDNSKNTLYLQMNSLRAEDTAVYYCAREGLWAFDYWGQGTLVTVTS VL: QSVLTQPPSASGTPGQRVTISCTGSSSNIGAGYVVHWYQQLPGTAPKLLIYDNNKRPSGVPDRFSGSKSGTSASLAISGLRSEDEADYYCAAWDDRLKGPVFGGGTKLTVLG
2.45		1.01		M31-B01 Fab LC G95bR (Fab, V domains shown, Fab with 3×HA-tag and hexa-histidine tag at the C-terminus of the heavy chain, culture supernatant) VH: EVQLLESGGGLVQPGGSLRLSCAASGFTFSNAWMSWVRQAPGKGLEWVSYISSSGSTIYYADSVKGRFTISRDNSKNTLYLQMNSLRAEDTAVYYCAREGLWAFDYWGQGTLVTVTS VL: QSVLTQPPSASGTPGQRVTISCTGSSSNIGAGYVVHWYQQLPGTAPKLLIYDNNKRPSGVPDRFSGSKSGTSASLAISGLRSEDEADYYCAAWDDRLNRPVFGGGTKLTVLG
1.3		0.13		M31-B01 Fab LC R94M (Fab, V domains shown, Fab with 3×HA-tag and hexa-histidine tag at the C-terminus of the heavy chain, culture supernatant) VH: EVQLLESGGGLVQPGGSLRLSCAASGFTFSNAWMSWVRQAPGKGLEWVSYISSSGSTIYYADSVKGRFTISRDNSKNTLYLQMNSLRAEDTAVYYCAREGLWAFDYWGQGTLVTVTS VL: QSVLTQPPSASGTPGQRVTISCTGSSSNIGAGYVVHWYQQLPGTAPKLLIYDNNKRPSGVPDRFSGSKSGTSASLAISGLRSEDEADYYCAAWDDMLNGPVFGGGTKLTVLG
	0.77		0.23	M31-B01 Fab LC T24S (Fab, V domains shown, Fab with 3×HA-tag and hexa-histidine tag at the C-terminus of the heavy chain, culture supernatant) VH: EVQLLESGGGLVQPGGSLRLSCAASGFTFSNAWMSWVRQAPGKGLEWVSYISSSGSTIYYADSVKGRFTISRDNSKNTLYLQMNSLRAEDTAVYYCAREGLWAFDYWGQGTLVTVTS VL: QSVLTQPPSASGTPGQRVTISCSGSSSNIGAGYVVHWYQQLPGTAPKLLIYDNNKRPSGVPDRFSGSKSGTSASLAISGLRSEDEADYYCAAWDDRLNGPVFGGGTKLTVLG
	1.12		0.35	M31-B01 Fab LC K53Q (Fab, V domains shown, Fab with 3×HA-tag and hexa-histidine tag at the C-terminus of the heavy chain, culture supernatant) VH: EVQLLESGGGLVQPGGSLRLSCAASGFTFSNAWMSWVRQAPGKGLEWVSYISSSGSTIYYADSVKGRFTISRDNSKNTLYLQMNSLRAEDTAVYYCAREGLWAFDYWGQGTLVTVTS VL: QSVLTQPPSASGTPGQRVTISCTGSSSNIGAGYVVHWYQQLPGTAPKLLIYDNNQRPSGVPDRFSGSKSGTSASLAISGLRSEDEADYYCAAWDDRLNGPVFGGGTKLTVLG
3.17		0.4		M31-B01 Fab LC W91E (Fab, V domains shown, Fab with 3×HA-tag and hexa-histidine tag at the C-terminus of the heavy chain, culture supernatant) VH: EVQLLESGGGLVQPGGSLRLSCAASGFTFSNAWMSWVRQAPGKGLEWVSYISSSGSTIYYADSVKGRFTISRDNSKNTLYLQMNSLRAEDTAVYYCAREGLWAFDYWGQGTLVTVTS VL: QSVLTQPPSASGTPGQRVTISCTGSSSNIGAGYVVHWYQQLPGTAPKLLIYDNNKRPSGVPDRFSGSKSGTSASLAISGLRSEDEADYYCAAEDDRLNGPVFGGGTKLTVLG
